For assay [1], the target named is T1, nucleocapsid protein of SARS-CoV-2 (SARS-CoV-2, UniProt P0DTC9 1-419).
Assay [2] concerns the target T1, nucleocapsid protein of SARS-CoV-2. The source holds these as a separate data set.

B1: rabbit monoclonal antibody 1F8 against the SARS-CoV-2 nucleocapsid protein (antibody, V domains shown)
VH: QEHLEESGGGLVKPGASLTLTCTASGFSLSNNYWICWVRQAPGKGLEWIACIYTGRDYTYYTSWAKGRFTISKTSSTTVTLQLNSLTAADTATYFCARNNTDYGDYWDLWGPGTLVTVSS
VL: AQVLTQTASPVSVAVGDTVTINCQASQSVYKNNYLAWYQLKPGQPPKLLIYWGTKLPSGVPSRFKGSGSGTHFTLTISDVQCDDAATYYCLGSYDCTIAECNVFGGGTEVVVEG
By Kd is commonly meant the free concentration of one partner at which half of the binding sites on the other are occupied at equilibrium, for simple one-to-one binding. By koff is commonly meant the first-order rate constant of dissociation. A low value points to a long-lived complex. Usually kon stands for the second-order rate constant of association. As to B1, in assay [1], the dissociation constant (Kd) was determined as 2.29 nM, the koff was found to be 0.000206 s⁻¹ and the on-rate (kon) was found to be 90200 M⁻¹ s⁻¹.

B2: rabbit monoclonal antibody 6H7 against the SARS-CoV-2 nucleocapsid protein (antibody, V domains shown)
VH: QQQLEESGGGLVQPGGSLTLSCKASGFNVNSDCYMCWVRQAPGKGLEWIGCIDTVSGSTYYATWAKGRFTISKTSSTTVTLQMTSLTAADTATYFCARDFLYNVNNAGDIMDLWGPGTLVTVSL
VL: AQVLTQTPSSVSAAVGGTVTINCQSSYNVYNNNYLAWYQQKPGQPPKLLIYTTSTLASGVPSRFSGSGSGTQFTLTISDLECDDAAIYYCQGYYRGPVNDFGGGTEVVVEG
In assay [1], B2 registered an equilibrium dissociation constant (Kd) of 0.674 nM, a koff of 0.000238 s⁻¹ and a kon of 354000 M⁻¹ s⁻¹.

B3: rabbit monoclonal antibody 3A7 against the SARS-CoV-2 nucleocapsid protein (antibody, V domains shown)
VH: QEQLEESGGGLVQPEGSLTLTCTASGFSLSDSAYMCWVRQAPGKGLEWIACIDAGVSGSTYYASWVNGRFTISKTSSTTVTLQMTSLTVADTATYFCARDFLYTPNNAGDIMDLWGPGTLVTVSL
VL: AQVLTQTPSSVSAAVGGTVTINCQSSHTVYSNNYLSWYQQKPGQPPKLLIYSASSLASGVPSRFKGSGSGTQFTLTISDLECDDAAIYYCHGYWRGPVNDFGGGTEVVVEG
In assay [1], B3 came in with a Kd of 1.22 nM, a dissociation rate constant (koff) of 0.000272 s⁻¹ and an on-rate (kon) of 224000 M⁻¹ s⁻¹.

B4: rabbit monoclonal antibody 1G7 against the SARS-CoV-2 nucleocapsid protein (antibody, V domains shown)
VH: QQQVVESGGGLVKPGASLTLTCEASGFSFSSGYDMCWVRQAPGKGLEWIACIYPGSSGNTYYASWAKGRFTISKTSSTTVTLQMTSLTAADTATYFCARTYASSSGDYIPYFFNLWGPGTLVTVSS
VL: DIVMTQTPASVEAAVGGTVTIKCQASENIYSGLAWYQQKPGQPPKLLIYDASDLASGVPSRFKGSGSGTEYTLTISDLECADAATYYCQNYYYSSRGFNTFGGGTEVVVKG
The EC50 (read off the curve) is the concentration needed to bring the measured effect to its halfway point. Low readings indicate higher potency in that assay, high ones lower potency in that assay. In the case of B4, in assay [2], the “EC50 (read off the curve)” value is about 10 ng/mL. Further, in assay [1], the affinity, expressed as Kd, was 8.14 nM; the off-rate constant (koff) was 9.87e-05 s⁻¹; the kon was determined as 12100 M⁻¹ s⁻¹.

B5: rabbit monoclonal antibody 5B12 against the SARS-CoV-2 nucleocapsid protein (antibody, V domains shown)
VH: QSLEESGGDLVQPEGTLTLTCTASGFSFFYDYYMCWVRQAPGKGLEWIGCIYGASGDTYYASWAKGRFTISKTSSTTVTLRMTSLTAADTATYFCARDVDTGSGIDFELWGPGTLVTVSS
VL: AYDMTQTPASVEVAVGGTVTIKCQASQSIGSYLSWYQQKPGQPPKLLIYSTSTLASGVPSRFKGSGSGTQFTLTISGVECADAATYYCQQGDTNHNIDNIFGGGTEVVVEG
In assay [1], B5 yielded a Kd of 1.89 nM, a koff of 8.29e-05 s⁻¹ and a kon of 44000 M⁻¹ s⁻¹.

B6: rabbit monoclonal antibody 5B4 against the SARS-CoV-2 nucleocapsid protein (antibody, V domains shown)
VH: QSLEESGGGLVKPGGTLTLTCTVSGLSLSTNAPNWVRQAPGKGLEWIGTIFIDDEDTYYASWAKGRFTISKTSSTTITLKMTSLTAADTATYFCARNSDLWDPGTLVVVSS
VL: AQVLTQTPSPVSAAVGGTVTINCQASQSVYNNNYLSWFQQKPGQPPKLLIYKASTLASGVSSRFKGSGSGTQFTLTISDVQCDDAATYFCLGSYDCRSANCIVFGGGTEVVVKG
In assay [1], B6 showed a Kd of 0.717 nM, a koff of 0.000261 s⁻¹ and an on-rate (kon) of 364000 M⁻¹ s⁻¹.

B7: rabbit monoclonal antibody 11B12 against the SARS-CoV-2 nucleocapsid protein (antibody, V domains shown)
VH: QQQLEESGGGLVKPGGTLTLTCTVSGLSLSSNTLNWVRQAPGKGLEWIGTIFIDDEDTYYASWAKGRFTISKTSSTTITLKMTSLTAADTATYFCARSSDLWDPGTLVVVSS
VL: AQVLTQTPSSVSAAVGGTVTINCQASQSVYKNNYLSWFQQKPGQPPKLLIYQASKLASGVSSRFKGSGSGTQFTLTISDVQCDDAATYFCLGSYDCRSANCIVFGGGTEVVVKG
In assay [1], B7 yielded an equilibrium dissociation constant (Kd) of 0.0565 nM, a koff of 2.63e-05 s⁻¹ and an on-rate constant (kon) of 465000 M⁻¹ s⁻¹.

The values are drawn from patent US20220056112A1 (YUROGEN BIOSYSTEMS, published 2022).
